Reference: patent publication US20150344570A1 (published 2015)

T1: FcγRIIb (human, UniProt P31994 43-217)
T1 construct: extracellular domain; also called FcgRIIb; 2b
T1 sequence (looked up): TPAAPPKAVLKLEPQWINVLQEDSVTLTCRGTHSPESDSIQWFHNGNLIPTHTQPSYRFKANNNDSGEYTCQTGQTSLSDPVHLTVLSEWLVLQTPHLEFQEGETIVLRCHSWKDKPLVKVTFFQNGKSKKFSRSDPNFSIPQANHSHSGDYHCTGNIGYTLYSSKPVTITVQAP

T2: FcγRIIb extracellular domain with C-terminal His tag (human, UniProt P31994 43-217)
T2 construct: extracellular domain; Expressed in FreeStyle293 cells; analyte in the SPR assay; also called FcgRIIb; 2b
T2 sequence (looked up): T1 sequence (looked up)

B1: GpH7-A5/GpH7-B3 variant D265_02A/GpL16-k0 (antibody, human IgG1, kappa)
heavy 1: not shown
heavy 2: not shown
light: DIVMTQSPLSLPVTPGEPASISCQASESLVHSNRNTYLHWYLQKPGQSPQLLIYKVSNRFSGVPDRFSGSGSGTDFTLKISRVEAEDVGVYYCSQNTHVPPTFGQGTKVEIERTVAAPSVFIFPPSDEQLKSGTASVVCLLNNFYPREAKVQWKVDNALQSGNSQESVTEQDSKDSTYSLSSTLTLSKADYEKHKVYACEVTHQGLSSPVTKSFNRGEC
notes: mutation in the GpH7-B3 chain only; also called He Ab
B2: GpH7-A5/GpH7-B3 variant D265_19Q/GpL16-k0 (antibody, human IgG1, kappa)
heavy 1: not shown
heavy 2: not shown
light: B1 light
notes: as for B1
B3: GpH7-A5/GpH7-B3 variant V266_20W/GpL16-k0 (antibody, human IgG1, kappa)
heavy 1: not shown
heavy 2: not shown
light: B1 light
notes: as for B1
B4: GpH7-A5/GpH7-B3 variant E269_01G/GpL16-k0 (He Ab) (antibody, human IgG1, kappa)
heavy 1: not shown
heavy 2: not shown
light: B1 light
notes: He Ab: mutation in one H chain only
B5: GpH7-A5/GpH7-B3 variant D265_10E/GpL16-k0 (He Ab) (antibody, human IgG1, kappa)
heavy 1: not shown
heavy 2: not shown
light: B1 light
notes: as for B4
B6: GpH7-A5/GpH7-B3 variant S298_07I/GpL16-k0 (antibody, human IgG1, kappa)
heavy 1: not shown
heavy 2: not shown
light: B1 light
notes: also called He Ab S298_07I
B7: GpH7-A5/GpH7-B3 variant S337_07I/GpL16-k0 (antibody, human IgG1, kappa)
heavy 1: not shown
heavy 2: not shown
light: B1 light
notes: also called He Ab S337_07I
B8: GpH7-A5/GpH7-B3 variant S298_10E/GpL16-k0 (antibody, human IgG1, kappa)
heavy 1: not shown
heavy 2: not shown
light: B1 light
notes: also called He Ab S298_10E
B9: GpH7-A5/GpH7-B3 variant S337_20W/GpL16-k0 (antibody, human IgG1, kappa)
heavy 1: not shown
heavy 2: not shown
light: B1 light
notes: also called He Ab S337_20W
B10: GpH7-A5/GpH7-B3 variant S298_20W/GpL16-k0 (antibody, human IgG1, kappa)
heavy 1: not shown
heavy 2: not shown
light: B1 light
notes: also called He Ab S298_20W
B11: GpH7-A5/GpH7-B3 variant S298_06M/GpL16-k0 (antibody, human IgG1, kappa)
heavy 1: not shown
heavy 2: not shown
light: B1 light
notes: also called He Ab S298_06M
B12: GpH7-A5/GpH7-B3 variant S337_04F/GpL16-k0 (antibody, human IgG1, kappa)
heavy 1: not shown
heavy 2: not shown
light: B1 light
notes: also called He Ab S337_04F
B13: GpH7-A5/GpH7-B3 variant S337_09D/GpL16-k0 (antibody, human IgG1, kappa)
heavy 1: not shown
heavy 2: not shown
light: B1 light
notes: also called He Ab S337_09D
B14: GpH7-A5/GpH7-B3 variant T335_05P/GpL16-k0 (antibody, human IgG1, kappa)
heavy 1: not shown
heavy 2: not shown
light: B1 light
notes: also called He Ab T335_05P
B15: GpH7-A5/GpH7-B3 variant S337_12R/GpL16-k0 (antibody, human IgG1, kappa)
heavy 1: not shown
heavy 2: not shown
light: B1 light
notes: also called He Ab S337_12R
B16: GpH7-A5/GpH7-B3 variant S298_15Y/GpL16-k0 (antibody, human IgG1, kappa)
heavy 1: not shown
heavy 2: not shown
light: B1 light
notes: also called He Ab S298_15Y
B17: GpH7-A5/GpH7-B3 variant T335_08L/GpL16-k0 (antibody, human IgG1, kappa)
heavy 1: not shown
heavy 2: not shown
light: B1 light
notes: also called He Ab T335_08L
B18: GpH7-A5/GpH7-B3 variant S324_08L/GpL16-k0 (antibody, human IgG1, kappa)
heavy 1: not shown
heavy 2: not shown
light: B1 light
notes: also called He Ab S324_08L
B19: GpH7-A5/GpH7-B3 variant S324_11K/GpL16-k0 (antibody, human IgG1, kappa)
heavy 1: not shown
heavy 2: not shown
light: B1 light
notes: also called He Ab S324_11K
B20: GpH7-A5/GpH7-B3 variant V266_19Q/GpL16-k0 (antibody, human IgG1, kappa)
heavy 1: not shown
heavy 2: not shown
light: B1 light
notes: also called He Ab V266_19Q
B21: GpH7-A5/GpH7-B3 variant S337_15Y/GpL16-k0 (antibody, human IgG1, kappa)
heavy 1: not shown
heavy 2: not shown
light: B1 light
notes: also called He Ab S337_15Y
B22: GpH7-A5/GpH7-B3 variant S324_16H/GpL16-k0 (antibody, human IgG1, kappa)
heavy 1: not shown
heavy 2: not shown
light: B1 light
notes: also called He Ab S324_16H
B23: GpH7-A5/GpH7-B3 variant T335_06M/GpL16-k0 (antibody, human IgG1, kappa)
heavy 1: not shown
heavy 2: not shown
light: B1 light
notes: also called He Ab T335_06M
B24: GpH7-A5/GpH7-B3 variant S324_02A/GpL16-k0 (antibody, human IgG1, kappa)
heavy 1: not shown
heavy 2: not shown
light: B1 light
notes: also called He Ab S324_02A
B25: GpH7-A5/GpH7-B3 variant S298_19Q/GpL16-k0 (antibody, human IgG1, kappa)
heavy 1: not shown
heavy 2: not shown
light: B1 light
notes: also called He Ab S298_19Q
B26: GpH7-A5/GpH7-B3 variant S324_19Q/GpL16-k0 (antibody, human IgG1, kappa)
heavy 1: not shown
heavy 2: not shown
light: B1 light
notes: also called He Ab S324_19Q

These binders were tested against T1, FcγRIIb (assay: SPR (Biacore), relative binding).

He/Con_2b | Binder
19.9 % of GpH7-A5/GpH7-B3/GpL16-k0 | B1
33.4 % of GpH7-A5/GpH7-B3/GpL16-k0 | B2
71.9 % of GpH7-A5/GpH7-B3/GpL16-k0 | B3

Each binder was assayed against T3, FcγRIa extracellular domain with C-terminal His tag (human, UniProt P12314 16-292) (assay: SPR (Biacore), relative binding, HeCon Ab = 100).
T3 construct: extracellular domain; Expressed in FreeStyle293 cells; analyte in the SPR assay; also called FcgRI; 1a
T3 sequence (P12314 16-292): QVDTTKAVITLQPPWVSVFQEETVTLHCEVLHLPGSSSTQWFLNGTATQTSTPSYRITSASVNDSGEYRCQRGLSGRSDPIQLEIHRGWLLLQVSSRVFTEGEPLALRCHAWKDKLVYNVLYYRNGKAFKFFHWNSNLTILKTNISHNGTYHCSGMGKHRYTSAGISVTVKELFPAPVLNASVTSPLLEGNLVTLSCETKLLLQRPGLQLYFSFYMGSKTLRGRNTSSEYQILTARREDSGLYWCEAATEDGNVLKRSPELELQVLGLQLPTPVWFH

He/Con_1a | Binder
104 % of HeCon Ab (=100) | B4
101 % of HeCon Ab (=100) | B5

The binders below were run against T2, FcγRIIb extracellular domain with … (assay: SPR (Biacore), relative binding, HeCon Ab = 100).

He/Con_2b | Binder
51.5 % of HeCon Ab (=100) | B4
38.2 % of HeCon Ab (=100) | B5

Each binder was assayed against T4, FcγRIa (human, UniProt P12314 16-292) (assay: SPR (Biacore); He Ab vs HeCon Ab GpH7-A5/GpH7-B3/GpL16-k0).
T4 construct: extracellular domain; Soluble extracellular domain expressed in FreeStyle293 cells, used as analyte in Biacore; also called FcgRI; 1a; not shown: His tag attached to the C terminus
T4 sequence (P12314 16-292): as above
Method: Analysis of interaction between objective antibody and the FcγR was carried out using Biacore T100 (GE Healthcare). HBS-EP+ (GE Healthcare) was used as the running buffer, and the measurement temperature was set to 25° C. Chips produced by immobilizing the antigen peptide by the amine coupling method to a Series S Sencor Chip CM5 (GE Healthcare), or alternatively, chips produced by allowing preliminarily biotinylated antigen peptides to interact with and immobilize onto a Series S Sensor Chip SA (certified) (GE Healthcare) were used. Antibodies of interest were captured onto an antigen peptide-immobilized chip, and allowed to interact to each FcγR diluted with running buffer. To regenerate and repeatedly use the chip, the antibodies captured on the chip were washed off by reacting 10 mM glycine-HCl, pH 1.5.

He/Con_1a | Binder
107 relative binding, control = 100 | B6
105 relative binding, control = 100 | B7
108 relative binding, control = 100 | B8
105 relative binding, control = 100 | B9
104 relative binding, control = 100 | B10
114 relative binding, control = 100 | B11
106 relative binding, control = 100 | B12
106 relative binding, control = 100 | B13
106 relative binding, control = 100 | B14
106 relative binding, control = 100 | B15
107 relative binding, control = 100 | B16
115 relative binding, control = 100 | B17
103 relative binding, control = 100 | B18
102 relative binding, control = 100 | B19
100 relative binding, control = 100 | B20
104 relative binding, control = 100 | B21
113 relative binding, control = 100 | B22
107 relative binding, control = 100 | B23
103 relative binding, control = 100 | B24
109 relative binding, control = 100 | B25
112 relative binding, control = 100 | B26
